Among the data in PMC4637192 are IC50 values, retold here.

The test addresses HLA-DRB5*01:01 molecule (recombinant HLA-DRA1 and DRB5*01:01 chains) (human). As to the kind of experiment: AlphaScreen or HTRF. A general note: Bead proximity is the source of the signal in Alpha formats.

What is called IC50 is the midpoint of a concentration-inhibition curve. In the case of “IE1 211-225 variant P3 K→Y (…) (peptide)”, the IC50 stood at 8 nM.
